Entries after “also recorded” stand apart in the source; their conditions may differ.
Assay: Acyl-CoA thioesterase assay with radiolabeled acyl-CoA, lysate of cells over-expressing ACH1
Type: biochemical
Settings: lysate of transfected E. coli cells
Experimental: In these assays, radiolabeled acyl-CoA is used as a substrate in which the [^14C] label is on the fatty acid portion of the molecule, and the enzyme activity is measured by the amount of labeled free fatty acid released by the action of the enzyme. Typically, the acyl group is palmitoyl-CoA (16:0 Co-A) or oleoyl-CoA (18:1-CoA). Because the reaction pH must be below 9, as a pH above this level causes base-catalyzed hydrolysis of the substrate, in most experiments the enzyme activity is measured between pH 7 and 9. The reactions are conducted at room temperature. The reaction volume is generally kept from about 32 μl to 100 μl. Although the reaction times may vary, typical incubation times are 10-15 minutes, which is sufficient for even small amounts of protein.
The protein solution to be assayed, which can be purified protein over-expressed in E. coli or unpurified protein in a plant extract or a plant subfraction, such as purified chloroplasts, is brought to the desired volume with buffer (20 mM Tris-HCl, pH 7.2, 200 mM NaCl and 1 mM EDTA). […] An 850 μl aliquot of the hexane phase is added to 3 ml BCS, and the amount of radioactivity determined in a scintillation counter.
The level of acyl-CoA thioesterase activity is determined by the amount of radioactivity that is found in the hexane phase. […]

B1: ACH1: Arabidopsis acyl-CoA thioesterase ACH1 (SEQ ID NO:5), expressed as fusion protein with a 6 histidine tag; assayed as cell lysate (protein, listed as Arabidopsis thaliana)
chain: MNTESVVEFLGNVTLLQRLPSSSLKRISEVVVFKGYDRGDYVVRENQNVDGVYFLLQGQAQVLRSAGEENYQEFPLKRYDFFGHGIFGDVYSADVVAVTELTCLLLMSDHRALLEIKSVSDSDKERCLVEDILYLEPLDLNVYRGFTPPNAPTYGKVYGGQLVGQALAAASKTVETMKIVHNFHCYFLLVGDINIPIIYDVNRLRDGNNFATRSVDARQKGKTIFTLFASFQKKQQGFIHQESTMPHTPAPETLLPREEMLERLVTEPLLPRDYRNQVATEISVPFPIDIRFCEPNRSTKQNKSPPRLKYWFRAKGKLSDDDQALHRCVVAFASDLIFATISLNPHRREGMSVAALSLDHSMWFHRPVRADDWLLFVIVSPTATESRGFATGKMFNRKGELVVSLTQEAVLREAVTIKPSFGAKL
acyl-CoA thioesterase activity of cell lysate compared with control plasmid cells: no increased acyl-CoA thioesterase activity was observed in cell lysates; also recorded: no greater than the level of activity in cells transfected with a control plasmid

From patent publication US6878861B2, “Acyl coenzyme A thioesterases” (Washington State University Research Foundation, priority 2000, dated 2005)
